# Data from PMC2200010.
# How the values were obtained:
# [1] = target: cholera toxin B subunit, pentameric, recombinant (Vibrio cholerae) (UniProt P01556); assay: ELISA
# [2] = target: Escherichia coli heat labile toxin B subunit, pentameric, recombinant (Escherichia coli) (UniProt P32890); assay: ELISA
# Sequence of UniProt P32890 (P32890 22-124): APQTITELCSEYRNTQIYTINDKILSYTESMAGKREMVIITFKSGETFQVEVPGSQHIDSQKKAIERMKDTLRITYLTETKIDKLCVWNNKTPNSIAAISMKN
# Sequence of UniProt P01556 (P01556 22-124): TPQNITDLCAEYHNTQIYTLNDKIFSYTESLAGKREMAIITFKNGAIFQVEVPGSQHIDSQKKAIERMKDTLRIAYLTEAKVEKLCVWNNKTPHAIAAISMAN
substance,measurement,setting,value
"cholera toxin A subunit, recombinant wild type (natural protein)",stoichiometry N (A subunit per pentameric B subunit),[1],1
"Escherichia coli heat labile toxin A subunit, recombinant wild type (from UniProt P06717 19-258) (natural protein)",stoichiometry N (A subunit per pentameric B subunit),[2],1
